Test results as given in the supplement of paper PMC10567573.
± gives the standard deviation.

Test: protein stability index of a GFP-peptide fusion (GPS, HEK-293T) (PSI 1-6); higher = more stable
Details: c terminus: a fixed tail appended
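Further: 24-mer peptide tiles fused after GFP, lentivirally expressed, FACS-sorted into six equal bins by GFP/DsRed ratio, decoded by Illumina sequencing, PSI is the read-weighted mean bin number.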

Row | Sequence | protein stability index (treatment: DMSO) | protein stability index (treatment: MLN4924 1 uM, 8 h)
1 | VSGSWERDQQVEAAQRALVEVLGP [RETREG3] | 3.9 ± 0.33 | 4.08 ± 0.094
2 | SSSPASVTTEQLGAKMTERGSVAR [PXN] | 4.86 ± 0.42 | 4.76 ± 0.59
3 | QATCNVHKSAFNDWFSGHLNFQIE [FADS1] | 2.44 ± 0.28 | 2.48 ± 0.2
4 | SEQESLLQQAQAQFRMAQEEARRN [SMG5] | 5.19 ± 0.2 | 5.14 ± 0.31
5 | DTREEKRFLGEGHHRVQENQMDKA [CHGB] | 5.25 ± 0.13 | 5.16 ± 0.25
6 | LHYQDTDSDVPEQRDSKCKVKWTH [MYBL2] | 3.77 ± 0.32 | 4.05 ± 0.19
7 | TNFHGVCMFCNEEFLGNRSVILNH [ZNF277] | 2.08 ± 0.33 | 2.11 ± 0.39
8 | AFPAAVSSMKKFCRPLLPSCTTRL [PSD2] | 2.33 ± 0.27 | 2.32 ± 0.093
9 | EKKESLGAAQEALSIQLQPKETQP [ZNF232] | 5.35 ± 0.35 | 5.5 ± 0.19
10 | AIDMFIIGATFTDWFTSYVKNVVS [FBXO3] | 2.82 ± 0.35 | –
11 | LPSERLDFSMAEALNQEFLATRSN [PRPH] | 4.24 ± 0.17 | 4.3 ± 0.2
12 | NPIGHLPESLTKPDQVAPFTFLQP [ATF4] | 3.56 ± 0.11 | 3.8 ± 0.49
13 | VPDSDIKALTTLCDLADRELVVII [ESRRG] | 2.53 ± 0.38 | 2.6 ± 0.45
14 | HSYLSGYISLLLRAEPYPTSRFGS [NR2F2] | 3.06 ± 0.33 | 2.85 ± 0.2
15 | LQSLRPHDEDIKTTNVKSASRQKT [ZNF396] | 5.14 ± 0.089 | 5.04 ± 0.28
16 | AMETDGPLFEDVQMLRKTVKDEAH [PPP2R5C] | 5.24 ± 0.49 | 5.12 ± 0.39
17 | SRMKERAIDLNKKGKDNKHPMYRR [ZMYND11] | 4.12 ± 0.2 | 4.08 ± 0.46
18 | PISEKAKDLILRFCIDSENRIGNS [STK38L] | 2.04 ± 0.47 | 2.05 ± 0.41
19 | DICLAQLEELGTLNVFQTVSRMRT [PTPN9] | 2.97 ± 0.22 | 2.79 ± 0.33
20 | HTTRSSLRGPRERAPSERSGPAAS [DVL3] | 5.15 ± 0.24 | 4.75 ± 0.31
21 | FAKLEKLTILAKRKSLFDDKAVEI [STX5] | 2.47 ± 0.23 | 2.48 ± 0.53
22 | KVQTVIILGKVILWILHLLLECYI [TMEM192] | 2.5 ± 0.62 | 2.35 ± 0.26
23 | YESEILPSTPNPQPPSCQGEAAGS [DUSP5] | 5.24 ± 0.13 | 5.296 ± 0.002

Row | Sequence | protein stability index (treatment: DMSO) | protein stability index (treatment: MLN4924 1 uM, 8 h)
24 | EAQISDPFAPEPTPPTTTAEIATA [SNAP91] | 5.42 ± 0.28 | 5.46 ± 0.13
25 | EGIRQTEYTLTGLKFDMKYMNFRV [FSD1] | 2.67 ± 0.54 | 2.56 ± 0.52
26 | LSIRCQHQEQVEDLTASHDAALLE [MTUS2] | 4.66 ± 0.22 | 4.86 ± 0.19
27 | LSPEPPVYSLQDFDTLATVGTGTF [PRKX] | 3.64 ± 0.21 | 3.59 ± 0.31
28 | VSDDLSSEEDGEARTQMILLRRSV [PHTF1] | 4.8 ± 0.17 | 5.08 ± 0.15
29 | MSPLQAMSSYTVAGRNVLRWDLSP [NLN] | 2.06 ± 0.31 | 2.55 ± 0.42
30 | KMIGFPSSAGSVSPRSTSVTTTSS [KRT13] | 4.4 ± 0.067 | 4.16 ± 0.096
31 | TEVITASEFHPHHCNLFVYSSSKG [PPP2R2C] | 2.73 ± 0.24 | 2.97 ± 0.29
32 | QYYRTIEELQNKILTATVDNANIL [KRT17] | 2.22 ± 0.2 | 2.23 ± 0.2
33 | LRLEGLLCDVTLMPGDTDDAFPVH [KLHL13] | 2.42 ± 0.24 | 2.48 ± 0.35
34 | KGTPASKLILGMPTYGRSFTLASS [CHIT1] | 2.47 ± 0.28 | 2.54 ± 0.21
35 | AEREALQARLRDVSRREGALGWAP [ZBED3] | 4.04 ± 0.13 | 3.92 ± 0.17
36 | VILAVSYMSQVLEKEMKAQEQRLG [GMPPB] | 2.27 ± 0.42 | 2.08 ± 0.17
37 | AAEYHAQRLKAVIVIQTYYRQWHA [IQUB] | 4.97 ± 0.25 | 4.88 ± 0.32
38 | IKEAKEQHPDMSVTKVVVHKETEI [EPB41L3] | 5.23 ± 0.14 | 5.02 ± 0.21
39 | LRSPRKFGVAGRSCQEVLRKGCLR [DFFB] | 2.9 ± 0.19 | 2.74 ± 0.35
40 | GDGKSKKKQAGRPKGSKGKEKDSP [RBBP5] | 5.39 ± 0.29 | 5.34 ± 0.11
41 | TKIRALQGSLENMSKLLKRQNDIL [CD207] | 2.4 ± 0.16 | 2.57 ± 0.21
42 | ALLLGQGANINAQTEETQETALTL [ANKRD17] | 4.17 ± 0.32 | 4.32 ± 0.27
43 | LLASLTGGVLIDRYGRRTAIILSS [SLC2A12] | 2.86 ± 0.5 | 3.06 ± 0.87
44 | YCNFNKYIPRRLEEAAMQKCLVTE [RSAD1] | 2.32 ± 0.41 | 2.51 ± 0.38
45 | SLNGPLSTSRHVMAPVMAHVDPEE [ADAMTS4] | 4.5 ± 0.25 | 4.49 ± 0.25
46 | LKKGSKEKQADFLDKQMSRDEHRA [NFE2L1] | 5 ± 0.39 | 5.08 ± 0.32

Row | Sequence | protein stability index (treatment: DMSO) | protein stability index (treatment: MLN4924 1 uM, 8 h)
47 | SCAGGRLFQQSCPTGLVFSNSCKC [CHIT1] | 2.98 ± 0.17 | 3.05 ± 0.24
48 | PMYFFLGNLSVLDVGCISVTVPSM [OR3A1] | 2.65 ± 0.52 | 3.06 ± 0.65
49 | GARPVSSAASVYAGAGGSGSRISV [KRT18] | 3.66 ± 0.34 | 3.75 ± 0.19
50 | LTFAKSSWARQESLQERKQALYEY [AUP1] | 2.78 ± 0.43 | 2.67 ± 0.39
51 | APTSTCRTSVGVAVLGGFLYAVGG [KLHL20] | 3.02 ± 0.94 | 2.71 ± 1.2
52 | HARLRLSADRLTVRCGLLGSLGPV [TRIM14] | 2.2 ± 0.65 | 2.31 ± 0.3
53 | VKVPTTLAEYCIKTKVPSNDNSSD [UBE2R2] | 4.41 ± 0.21 | 4.63 ± 0.17
54 | VAVESMEPNNIVVLLQTSPYHVDS [TCF25] | 2.28 ± 0.38 | 2.13 ± 0.4
55 | TLLKKISEASKAFQMEKIEHGYEN [TRIM55] | 2.3 ± 0.26 | 2.4 ± 0.15
56 | TSCKLTDLRGVCVSGKCEPIGCDG [ADAMTSL2] | 3.4 ± 0.12 | 3.28 ± 0.27
57 | RASQREYEELRNSERAEVQRLEEQ [RSPH3] | 5.43 ± 0.27 | 5.3 ± 0.2
58 | FNEMSAQGLRPRTVSSPIPYTPSP [CCDC6] | 4.02 ± 0.3 | 4.12 ± 0.23
59 | QFPYVEFTGRDSITCLTCQGTGYI [TMEM106C] | 2.93 ± 0.47 | 3.09 ± 0.52
60 | VARSGTPAVENKQQIGDAIRMIVR [PLK2] | 3 ± 0.22 | 3.09 ± 0.23
61 | ASFCVETNNGAGFGLSILWVLLFT [SCAMP3] | 2.86 ± 0.71 | 2.99 ± 0.12
62 | DTDVDMEGLRRRRGREAGPPQPMV [PBXIP1] | 4.75 ± 0.36 | 5.04 ± 0.11
63 | YGLKPLTPNSKYVKLNVGGSLHYT [KCTD13] | 2.33 ± 0.23 | 2.49 ± 0.19
64 | IRQLQEQHYQQYMQQLYQVQLAQQ [ACBD3] | 2.23 ± 0.29 | 2.43 ± 0.24
65 | ELIRNIQELLKRTIMQAVSQIRLN [TEKT4] | 3 ± 0.46 | 2.77 ± 0.53
66 | FYRLYQDLETHRLPCTSRCPRPCR [SCNN1D] | 2.8 ± 0.26 | 2.99 ± 0.35
67 | ERQVLPDPEVLEAVGDRQDGLREQ [PBXIP1] | 5.54 ± 0.26 | 5.64 ± 0.1
68 | RVIEVLPRGATAAVLAPDSSNASS [SEPHS2] | 4.31 ± 0.19 | 4.42 ± 0.18
69 | FEQILSLPELKANPFKERICRVFS [CIB1] | 2.25 ± 0.2 | 2.38 ± 0.16

Row | Sequence | protein stability index (treatment: DMSO) | protein stability index (treatment: MLN4924 1 uM, 8 h)
70 | VEKFIYENHPDVFSDSSMDHFQKF [MYOZ1] | 2.94 ± 0.2 | 3.09 ± 0.19
71 | IPGHGGIMDRFDCQYLMATFVNVY [CDS2] | 3 ± 0.46 | 2.54 ± 0.51
72 | EEKEAWYREESDSLGQDLRRLRQE [DAPK3] | 5.28 ± 0.31 | 5.35 ± 0.17
73 | KGRHHRGRGGEPRAYFMSDTREEK [CHGB] | 4.93 ± 0.12 | 4.95 ± 0.096
74 | NSVNDQTKILVVNAAYFVGKWMKK [SERPINB5] | 2.3 ± 0.26 | 2.48 ± 0.5
75 | QAPPQDSSNKKEKKVLNHGYDDDN [DYRK1B] | 5.61 ± 0.16 | 5.51 ± 0.11
76 | INILQNEKSHQVLAQLLDTLLAIG [INTS4] | 2.43 ± 0.31 | 2.17 ± 0.2
77 | KELADFIRERATIEETYSKAMAKL [FCHO1] | 3.16 ± 0.21 | 3.31 ± 0.29
78 | GAFQAQEKELVFDIDMTDYDDVRR [PRIM1] | 4.72 ± 0.4 | 4.71 ± 0.14
79 | CKESSPMPVICGPEENYPSLQMSS [NANOGP8] | 3.65 ± 0.27 | 3.74 ± 0.25
80 | VLLPETQKRQQLSEDTLTIHGLPT [C22orf31] | 3.73 ± 0.092 | 3.88 ± 0.3
81 | AVIGNFLYVVGGQSNYDTKGKTAV [KLHL13] | 2.38 ± 0.73 | 2.24 ± 0.67
82 | EIVSIWILSFILAIPEAIGFVMVP [EDNRA] | 2.86 ± 0.18 | 3.03 ± 0.17
83 | TVSTSEVTSQQEPQIPVDRGSETT [TAF7L] | 5.49 ± 0.12 | 5.44 ± 0.16
84 | GSSLSGSLCSLLESQSTSLRGSYN [LURAP1L] | 3.07 ± 0.14 | 2.87 ± 0.29
85 | TFGPIPEFSRATAEKVNQDMCMKV [CRYL1] | 3.9 ± 0.25 | 3.94 ± 0.17
86 | KEDTLLLIAEVMGEDIPEKIKDEV [C8orf76] | 4.35 ± 0.49 | 4.22 ± 0.38
87 | QLEKPPEKEEDHAPEFIKVRENLR [FAM107A] | 5.29 ± 0.23 | 5.32 ± 0.16
88 | MTKAQESLTLEDVAVDFTWEEWQF [ZNF649] | 3.36 ± 0.12 | 3.74 ± 0.44
89 | GQENDATSPHFSTRHEGSFQVPVL [CD69] | 3.68 ± 0.35 | 3.69 ± 0.14
